“And” between values parts separate entries of the source, which are not always exact repeats. Equal values may be shown once.
B1: Flavodiiron protein Flv3 (sll0550) in Synechocystis sp. PCC 6803 (natural protein, UniProt Q55393 1-573, looked up)
chain: MFTTPLPPQKRLSTQTEAIAKNITAIRSLDWDRDRFDIEFGLQNGTTYNSYLIQADKVALVDSSHEKFRQLYLDLLQGLIDPQRIDYLIVSHTEPDHSGLVKDILQLNPRITVVATKVALQFLDNFVHQPFERIQVKSGDRLDLGQGHDLEFVSAPNLHWPDTMLTYDPATEILFTCDVFGMHYCSDAVFDIDLGKIAPDYQFYYDCLMGPNARSVLAAMKRMDNLGTISTVANGHGPLLRHNVGELLHRYRHWSESQSKAEKTVVVFYVADYGYGDRLSQAIAKGITKTGVGVDMVDLSSADPQEIQELVGHASGVVLGMPPLQANADLSTNFGAVLAAMQPKQVFGLYESYGGDDEPIDPLRTKFLDLGLREAFKVIKVKDTPSESTYQLCDESGTDLGQNLIQAAKIKQLKSLDSDLEKAIGRISGGLYIITAQKGEVKGAMLASWVSQASFNPPGFTVAVAKDRAIESLMQVGDRFVLNILEEGNYQILMKHFLKRFPPGADRFAGVKTQTASNGSPILTDALAYLECEVASRMECSDHWIVYSQVTNGRVAKAEGLTAVHHRKVGNYY
B2: His-tagged Flv3 expressed in Escherichia coli (natural protein, Synechocystis sp. PCC 6803, UniProt Q55393 1-573, looked up)
chain: B1 chain

Tests used:
[1] = target: the molecule itself; assay: native gel or EMSA
[2] = target: the molecule itself; assay: SEC

Protein	stoichiometry N [1]	stoichiometry N [2]
B1	2	
B2		2 and 4

Reference: PMC4937785 (Plant and Cell Physiology, 2016)
